{"source": "paper PMC10954796", "about": "“Post-translational modifications of beta-amyloid alter its transport in the blood-brain barrier in vitro model” (Frontiers in Molecular Neuroscience, 2024)", "origin": "cited, not measured here", "key": {"[1]": {"molecular_target": "Aβ40 1-40 (Homo sapiens) (UniProt P05067)", "sequence (P05067 1-40)": "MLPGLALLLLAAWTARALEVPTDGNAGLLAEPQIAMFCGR"}, "[2]": {"molecular_target": "Aβ42 oligomers 1-42 (Homo sapiens) (UniProt P05067)", "sequence (P05067 1-42)": "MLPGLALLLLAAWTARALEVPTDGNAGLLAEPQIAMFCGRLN", "assay": "surface plasmon resonance"}}, "note": "Where “and” joins values, the source holds several entries; their conditions need not be identical. Identical values can stand only once."}
{"substance": "RAGE (from UniProt Q15109)", "values": [{"measurement": "Kd", "setting": "[1]", "value": "75 nM and 57 nM"}]}
{"substance": "sRAGE (from UniProt Q15109)", "values": [{"measurement": "Kd", "setting": "[2]", "value": 17, "unit": "nM"}]}
